Key:
[1] = Whole cell CADC assay in recombinant E. coli BL21(DE3); format: cell-based; conditions: whole cells in pH7 PBS, 1 g/L trans-cinnamic acid, 12 h
Experimental: (§1) Seed cultures consisting of 5 ml of LB broth containing 100 mg/L ampicillin were prepared of E. coli BL21(DE3) strains that were individually transformed with each of pTpad1-fdc1, pTpad1Sc, pTfdc1Sc, pTpdcLp, and pTpadCBs. These cultures were grown for 12 hours at 30° C. while agitating at 250 rpm. 1 mL of each culture was then used to inoculate 3×250 mL cultures flasks containing 50 mL of LB supplemented with 100 mg/L ampicillin. The culture was then grown at 30° C. while agitating at 250 rpm until it reached an OD600 of 0.6, at which point the cultures were induced by the addition of IPTG to a final concentration of 0.2 mM. Cultures were then grown for an additional 6 h. Cells were then collected by centrifuging in 50 ml Falcon tubes for 5 min at 1400×g and washed once with pH7 PBS (phosphate buffered saline) buffer. The entire cell pellet was resuspended in 10 ml pH7 PBS buffer and the appropriate substrate (trans-cinnamic acid or p-coumaric acid) added at a final concentration of 1 g/L. Enzyme activity was monitored by taking 1 mL samples from the culture at both the time of initiation as well as after 12 h of culture. All samples were then analyzed by HPLC using the methods described herein.

[2] = Whole cell PADC assay in recombinant E. coli BL21(DE3); format: cell-based; conditions: whole cells in pH7 PBS, 1 g/L p-coumaric acid, 12 h
Experimental: as §1

B1: FDC1: ferulic acid decarboxylase encoded by FDC1 of S. cerevisiae, expressed in recombinant E. coli from pTfdc1Sc (protein, listed as Saccharomyces cerevisiae)
chain: MRKLNPALEFRDFIQVLKDEDDLIEITEEIDPNLEVGAIMRKAYESHLPAPLFKNLKGASKDLFSILGCPAGLRSKEKGDHGRIAHHLGLDPKTTIKEIIDYLLECKEKEPLPPITVPVSSAPCKTHILSEEKIHLQSLPTPYLHVSDGGKYLQTYGMWILQTPDKKWTNWSIARGMVVDDKHITGLVIKPQHIRQIADSWAAIGKANEIPFALCFGVPPAAILVSSMPIPEGVSESDYVGAILGESVPVVKCETNDLMVPATSEMVFEGTLSLTDTHLEGPFGEMHGYVFKSQGHPCPLYTVKAMSYRDNAILPVSNPGLCTDETHTLIGSLVATEAKELAIESGLPILDAFMPYEAQALWLILKVDLKGLQALKTTPEEFCKKVGDIYFRTKVGFIVHEIILVADDIDIFNFKEVIWAYVTRHTPVADQMAFDDVTSFPLAPFVSQSSRSKTMKGGKCVTNCIFRQQYERSFDYITCNFEKGYPKGLVDKVNENWKRYGYK
CADC activity (trans-cinnamic acid to styrene) [1]: activities on both p-coumaric and trans-cinnamic acid | activity on p-coumaric acid (to p-hydroxystyrene) [2]: activities on both p-coumaric and trans-cinnamic acid
